This note sets out measurements from publication PMC8892010.

Data set [1] in a line: whole-cell lysate anti-FLAG immunoblot. To be noted: glycan lost, untreated cells. Background: A western blot detects proteins with antibodies after separation by electrophoresis.
Data set [2] can be described thus: inside-out patch clamp, G-V Boltzmann fits, 0 Ca2+. The settings on record: glycan lost, untreated cells; for other: BK channel gating modulation: control: γ2 WT. A general note: In patch-clamp work, channel activity is measured electrically.
A short description of data set [3]: cell surface immunoprecipitation, N-terminal FLAG. The settings on record: glycan lost, untreated cells; for localisation_or_trafficking, other: percent decrease: control: γ1 WT.
The nature of data set [4]: inside-out patch clamp, G-V, 0 Ca2+. To be noted: glycan lost; control: γ3 WT, untreated cells.

B1: BK channel γ1 subunit (LRRC26): tunicamycin (protein)
parent chain: MRGPSWSRPRPLLLLLLLLSPWPVWAQVSATASPSGSLGAPDCPEVCTCVPGGLASCSALSLPAVPPGLSLRLRALLLDHNRVRALPPGAFAGAGALQRLDLRENGLHSVHVRAFWGLGALQLLDLSANQLEALAPGTFAPLRALRNLSLAGNRLARLEPAALGALPLLRSLSLQDNELAALAPGLLGRLPALDALHLRGNPWGCGCALRPLCAWLRRHPLPASEAETVLCVWPGRLTLSPLTAFSDAAFSHCAQPLALRDLAVVYTLGPASFLVSLASCLALGSGLTACRARRRRLRTAALRPPRPPDPNPDPDPHGCASPADPGSPAAAAQA
As for B1, the expression_or_secretion entry in data set [1] (control: γ1 WT) is on record as “no change”. In data set [2] (control: γ1 WT), the “other: BK channel gating modulation, other: fraction of channels not modulated” value is recorded as “decreases”. The “localisation_or_trafficking, other: percent decrease” value in data set [3] is on record as “decreases”.

B2: BK channel γ1 subunit (LRRC26): N147Q (protein)
parent chain: MRGPSWSRPRPLLLLLLLLSPWPVWAQVSATASPSGSLGAPDCPEVCTCVPGGLASCSALSLPAVPPGLSLRLRALLLDHNRVRALPPGAFAGAGALQRLDLRENGLHSVHVRAFWGLGALQLLDLSANQLEALAPGTFAPLRALRNLSLAGNRLARLEPAALGALPLLRSLSLQDNELAALAPGLLGRLPALDALHLRGNPWGCGCALRPLCAWLRRHPLPASEAETVLCVWPGRLTLSPLTAFSDAAFSHCAQPLALRDLAVVYTLGPASFLVSLASCLALGSGLTACRARRRRLRTAALRPPRPPDPNPDPDPHGCASPADPGSPAAAAQA
As for B2, the expression_or_secretion entry in data set [1] (control: γ1 WT) is “no change”. In addition, the “localisation_or_trafficking, other: percent decrease” value in data set [3] is given as “decreases”.

B3: BK channel γ3 subunit (LRRC55): tunicamycin (protein)
parent chain: MGDTWAQLPWPGPPHPAMLLISLLLAAGLMHSDAGTSCPVLCTCRNQVVDCSSQRLFSVPPDLPMDTRNLSLAHNRITAVPPGYLTCYMELQVLDLHNNSLMELPRGLFLHAKRLAHLDLSYNNFSHVPADMFQEAHGLVHIDLSHNPWLRRVHPQAFQGLMQLRDLDLSYGGLAFLSLEALEGLPGLVTLQIGGNPWVCGCTMEPLLKWLRNRIQRCTADSQLAECRGPPEVEGAPLFSLTEESFKACHLTLTLDDYLFIAFVGFVVSIASVATNFLLGITANCCHRWSKASEEEEI
With B3, the “other: BK channel gating modulation, other: V1/2” value in data set [4] is “abolishes, 160.1 ± 7.4 vs 115.0 ± 1.7”. The localisation_or_trafficking result in data set [3] (control: γ3 WT) is “abolishes”.

B4: BK channel γ2 subunit (LRRC52): N148Q (protein)
parent chain: MSLASGPGPGWLLFSFGMGLVSGSKCPNNCLCQAQEVICTGKQLTEYPLDIPLNTRRLFLNENRITSLPAMHLGLLSDLVYLDCQNNRIREVMDYTFIGVFKLIYLDLSSNNLTSISPFTFSVLSNLVQLNIANNPHLLSLHKFTFANTTSLRYLDLRNTGLQTLDSAALYHLTTLETLFLSGNPWKCNCSFLDFAIFLIVFHMDPSDDLNATCVEPTELTGWPITRVGNPLRYMCITHLDHKDYIFLLLIGFCIFAAGTVAAWLTGVCAVLYQNTRHKSSEEDEDEAGTRVEVSRRIFQTQTSSVQEFPQLI
With B4, the “other: BK channel gating modulation” value in data set [2] is on record as “decreases”.

B5: BK channel γ2 subunit (LRRC52): N112Q/N211Q (protein)
parent chain: MSLASGPGPGWLLFSFGMGLVSGSKCPNNCLCQAQEVICTGKQLTEYPLDIPLNTRRLFLNENRITSLPAMHLGLLSDLVYLDCQNNRIREVMDYTFIGVFKLIYLDLSSNNLTSISPFTFSVLSNLVQLNIANNPHLLSLHKFTFANTTSLRYLDLRNTGLQTLDSAALYHLTTLETLFLSGNPWKCNCSFLDFAIFLIVFHMDPSDDLNATCVEPTELTGWPITRVGNPLRYMCITHLDHKDYIFLLLIGFCIFAAGTVAAWLTGVCAVLYQNTRHKSSEEDEDEAGTRVEVSRRIFQTQTSSVQEFPQLI
On to B5, for which the “other: BK channel gating modulation” value in data set [2] is “decreases”.

B6: BK channel γ2 subunit (LRRC52): N148Q/N211Q (protein)
parent chain: MSLASGPGPGWLLFSFGMGLVSGSKCPNNCLCQAQEVICTGKQLTEYPLDIPLNTRRLFLNENRITSLPAMHLGLLSDLVYLDCQNNRIREVMDYTFIGVFKLIYLDLSSNNLTSISPFTFSVLSNLVQLNIANNPHLLSLHKFTFANTTSLRYLDLRNTGLQTLDSAALYHLTTLETLFLSGNPWKCNCSFLDFAIFLIVFHMDPSDDLNATCVEPTELTGWPITRVGNPLRYMCITHLDHKDYIFLLLIGFCIFAAGTVAAWLTGVCAVLYQNTRHKSSEEDEDEAGTRVEVSRRIFQTQTSSVQEFPQLI
In the case of B6, in data set [2], the “other: BK channel gating modulation” value is on record as “decreases”.

B7: BK channel γ2 subunit (LRRC52): triple-site mutant (N112Q/N148Q/N211Q) (protein)
parent chain: MSLASGPGPGWLLFSFGMGLVSGSKCPNNCLCQAQEVICTGKQLTEYPLDIPLNTRRLFLNENRITSLPAMHLGLLSDLVYLDCQNNRIREVMDYTFIGVFKLIYLDLSSNNLTSISPFTFSVLSNLVQLNIANNPHLLSLHKFTFANTTSLRYLDLRNTGLQTLDSAALYHLTTLETLFLSGNPWKCNCSFLDFAIFLIVFHMDPSDDLNATCVEPTELTGWPITRVGNPLRYMCITHLDHKDYIFLLLIGFCIFAAGTVAAWLTGVCAVLYQNTRHKSSEEDEDEAGTRVEVSRRIFQTQTSSVQEFPQLI
With B7, the expression_or_secretion entry in data set [1] (control: γ2 WT) is “decreases”.

B8: BK channel γ2 subunit (LRRC52): N112Q (protein)
parent chain: MSLASGPGPGWLLFSFGMGLVSGSKCPNNCLCQAQEVICTGKQLTEYPLDIPLNTRRLFLNENRITSLPAMHLGLLSDLVYLDCQNNRIREVMDYTFIGVFKLIYLDLSSNNLTSISPFTFSVLSNLVQLNIANNPHLLSLHKFTFANTTSLRYLDLRNTGLQTLDSAALYHLTTLETLFLSGNPWKCNCSFLDFAIFLIVFHMDPSDDLNATCVEPTELTGWPITRVGNPLRYMCITHLDHKDYIFLLLIGFCIFAAGTVAAWLTGVCAVLYQNTRHKSSEEDEDEAGTRVEVSRRIFQTQTSSVQEFPQLI
Consider B8, for which the “other: BK channel gating modulation” value in data set [2] is reported as “decreases”.

B9: BK channel γ2 subunit (LRRC52): N112Q/N148Q (protein)
parent chain: MSLASGPGPGWLLFSFGMGLVSGSKCPNNCLCQAQEVICTGKQLTEYPLDIPLNTRRLFLNENRITSLPAMHLGLLSDLVYLDCQNNRIREVMDYTFIGVFKLIYLDLSSNNLTSISPFTFSVLSNLVQLNIANNPHLLSLHKFTFANTTSLRYLDLRNTGLQTLDSAALYHLTTLETLFLSGNPWKCNCSFLDFAIFLIVFHMDPSDDLNATCVEPTELTGWPITRVGNPLRYMCITHLDHKDYIFLLLIGFCIFAAGTVAAWLTGVCAVLYQNTRHKSSEEDEDEAGTRVEVSRRIFQTQTSSVQEFPQLI
B9: the “other: BK channel gating modulation” value in data set [2] is “decreases”.

B10: BK channel γ2 subunit (LRRC52): N211Q (protein)
parent chain: MSLASGPGPGWLLFSFGMGLVSGSKCPNNCLCQAQEVICTGKQLTEYPLDIPLNTRRLFLNENRITSLPAMHLGLLSDLVYLDCQNNRIREVMDYTFIGVFKLIYLDLSSNNLTSISPFTFSVLSNLVQLNIANNPHLLSLHKFTFANTTSLRYLDLRNTGLQTLDSAALYHLTTLETLFLSGNPWKCNCSFLDFAIFLIVFHMDPSDDLNATCVEPTELTGWPITRVGNPLRYMCITHLDHKDYIFLLLIGFCIFAAGTVAAWLTGVCAVLYQNTRHKSSEEDEDEAGTRVEVSRRIFQTQTSSVQEFPQLI
Regarding B10, the “other: BK channel gating modulation” value in data set [2] is listed as “decreases”.

B11: BK channel γ2 subunit (LRRC52): tunicamycin (protein)
parent chain: MSLASGPGPGWLLFSFGMGLVSGSKCPNNCLCQAQEVICTGKQLTEYPLDIPLNTRRLFLNENRITSLPAMHLGLLSDLVYLDCQNNRIREVMDYTFIGVFKLIYLDLSSNNLTSISPFTFSVLSNLVQLNIANNPHLLSLHKFTFANTTSLRYLDLRNTGLQTLDSAALYHLTTLETLFLSGNPWKCNCSFLDFAIFLIVFHMDPSDDLNATCVEPTELTGWPITRVGNPLRYMCITHLDHKDYIFLLLIGFCIFAAGTVAAWLTGVCAVLYQNTRHKSSEEDEDEAGTRVEVSRRIFQTQTSSVQEFPQLI
As for B11, the expression_or_secretion result in data set [1] (control: γ2 WT) is given as “decreases”. Besides, the “other: BK channel gating modulation” value in data set [2] is reported as “abolishes”.
